In patent publication US20240166738A1 (Alector, published 2024):

Molecular target: human TMEM106B (human, UniProt Q9NUM4 2-274)
Assay: cell-based or functional assay
Note: test concentration or dose not given here.

Row | Binder | % Protection from CPE
1 | TM-11 (antibody, V domains shown) VH: QVQLKQSGPGQVQPSQSLSITCTVSGFSLSDYGVHWVRQSPGKGLEWLGVIWNNGNTDYNAAFISRLSINKDNSKSQVFFKMTSLQADDTAIYYCVRSLRPLHFDYWGQGTTVTVSS VL: DIVMTQSPSSLTMSVGQKVTMHCKSSQSLLNSNNLQNYLAWYQQKPGQSPTLLVYFASIRESGVPDRFIGSGSGTDFTLTISSVQAEDLADYFCQQHYNTPFTFGSGTKLEIR | 93.9%
2 | TM-24 (antibody, V domains shown) VH: QVQLKQSGPGQVQPSQSLSITCTVSGFSLSDYGVHWVRQSPGKGLEWLGVIWNNGNTDYNAAFISRLSINKDNSKSQVFFKMTSLQADDTAIYYCVRSLRPLHFDYWGQGTTVTVSS VL: DIVMTQSPSSLTMSVGQKVTMNCKSSQSLLNSNNQQNYLAWYQQKPGQSPKLLVYFASIRESGVPDRFIGSGSGTDFTLTINSVQAEDLADYFCQQHYSTPFTFGSGTKLEIR | 8.4%
3 | TM-76 (antibody, V domains shown) VH: QVTLKESGPGILQPSQTLSLTCSFSGFSLSTSGMGVSWIRKPSGKGLEWLAHIFWDDDKRYNLFLKSRLTVSKDTSSNQVFLMITSVDTTDTATYYCARMGRQRDYFDYWGQGTSLTVSS VL: QIILTQSPAIMSASLGEEITLTCSASLSISYVHWYQQKSGASPKLLIYGTSNLASGVPSRFSGSGSGTFYSLTISSVEAEDAADYYCHQWSIYRTFGGGTKLEMK | 89.2%
4 | TM-13 (antibody, V domains shown) VH: QVQLQQSGAELVKPGASVKMSCKASGYTFTTFPIEWMKQSHGKGLEWIGNFHPYNDDTKYNEKFKGKATLTVDKSSSTVYLDLSRLTSDDSAVYYCARYFYGGMDYWGQGTSVTVSS VL: DIQMTQSPASLSVSVGETVTITCRASENIYSSLGWYQQKQGESPQLLVFAATNLADGVPSRFSGSGSGTQYSLKINSLQSEDFGTYYCQHLWSIPWTFGGGTRLEIK | 81.8%
5 | TM-21 (antibody, V domains shown) VH: EVQLVESGGGLVKPGGSLKLSCAASGFTFSNYAMSWVRETPEKRLEWVAFISDGGGYIYYADNVKDRFTISRDNAKNNLYLQMRHLKSEDTAMYYCARDGGTGFTYWGQGTLVTVSV VL: DIVMTQAAFSNPVTLGTSASISCRSSKSLLHSNGITYLFWYLQKPGQSPQLLIYQMSNLASGVPDRFSSSGSGTDFTLRISRVEAEDVGVYYCVQNLELPYTFGGGTKLEIK | 93.7%
6 | TM-29 (antibody, V domains shown) VH: QVQLRQSGAELVRPGASVKLSCKASGYTFTDYYINWVKQRPGQGLEWIARIYPGSGYTYYNEKFKGKATLTAEGSSNTAYMQLSSLTSEDSAVYFCANHYTNPFAYWGQGTLVTVSA VL: DIVMTQAAFSNPVTLGTSASISCRSSKSLLHYNGITYLYWYLQKPGQSPQLLIYQMSNLASGVPDRFSSSGSGTDFTLRISRVEAEDVGVYYCAQNLELPYTFGGGTKLEIK | 92.6%
7 | TM-35 (antibody, V domains shown) VH: QVQLQQSGPELVRPGTSVKISCKAPGYTFTRHWMQWVRQRPGQGLEWIGEILPGSNNIYYNEKVKGKATLTVDTSSSTSYMQLSSLTSEDSAVYFCARSLYDYDGVFAYWGQGTLVTVSA VL: DVLMTQIPLSLPVSLGDQASISCRSSQSIVHRNGNTYLEWYLQKPGQSPKLLIYKVSNRFSGVPDRFSGSGSGTDFTLKISRVEAEDLGVYYCFQGSHVPYTFGGGTKLEIK | 90.4%
8 | TM-60 (antibody, V domains shown) VH: QVQLQQSGPELVKPGASVKLSCKASGYTFTSYDINWVKQRPGQGLEWIGWIYPRDGNTQYIEKLKGKATLTVDTSSSTAYMELHSLTSEDSAVYFCARWIFYAMDYWGQGTSVTVSS VL: DVLMTQTPLSLPVSLGDQASISCRSSQSIVHGNGNTYLEWYLQKPGQSPKLLIYKVSNRFSGVPDRFSGSGSGTDFTLKISRVEAEDLGVYYCFQGSHLPYTFGGGTKLEIK | 94.2%
9 | TM-32 (antibody, V domains shown) VH: EVQLQQSGAELVRPGASVRLSCIASGFNIKDYYMYWVKQRPEQGLEWIGRIDPEDGDTEYVPKFQGKATMTADTSSNTAYLQLSSLTSEDIGVYYCTTRTWDLYYAVDNWGQGTSVTVSS VL: DVLMTQTPLSLPVSLGDQASISCRSSQNIVHSNGNTYLEWYLQKPGQSPKLLIDKVSNRFSGVPDRFSGSGSGTDFTLKISRVEAEDLGIYYCFQGSHVPFTFGSGTKLEIK | 105%
10 | TM-48 (antibody, V domains shown) VH: QVQLQQSGPELVKPGASVKLSCKASGYTFTSYDINWVKQRPGQGLEWIGWIYPRDGNTQYIEKLKGKATLTVDTSSSTAYMELHSLTSEDSAVYFCARWIFYAMDYWGQGTSVTVSS VL: DVLMTQTPLSLPVSLGNQASISCRSSQSIVHGNGNTYLEWYLQKPGQSPKLLIYKVSNRFSGVPDRFSGSGSGTDFTLKISRVEAEDLGVYYCFQGSHLPYTFGGGTKLEIK | 89.3%
11 | TM-25 (antibody, V domains shown) VH: EVQLVESGGDLVKPGGSLRLSCAASGFTFSGYGMSWIRQTPDKRLEWVATISSGGRYTVYPDSVKGRFTMSRDNVKNTLYLQMSSLKSEDTALYYCARDNFYSYAMDYWGLGTSVTVSA VL: DIVMTQAAFSNPVTLGTSASISCRSSKSLLHSNGITYLFWYLQKPGQSPQLLIYQMSNLASGVPDRFSSSGSGTDFTLRISRVEAEDVGVYYCAQNLELWTFGGGTKLEIK | 106%
12 | TM-72 (antibody, V domains shown) VH: QVQLQQPGAELVKPGTSVKLSCKASGSTFTNYWMHWVMQRPGQGLEWIGNIDPSDSDTHYNQKFKDRAKLTVDKSSSTAYMQLSGLTSEDSAVYYCARSRGGYYDYGEAMDYWGQGTSVTVSS VL: DIVMTQAAPSVPVTPGESVSISCRSSKSLLHTNGNTYLFWFIQRPGQSPHLLIYRKSNLASGVPDRFSGSGSGTAFTLRISRVEAEDVGVYYCMQHLEYPFTFGSGTKLEIK | 92.7%
13 | TM-78 (antibody, V domains shown) VH: QVQLQQPGAELVKPGASVKLSCKASGYTFTNHWMHWVRQRPGQGLEWIGNIDPSDSDTHYNHKFKDKATLIVDKSSSTAYLQLSSLTSEDSAVFYCARSRGGYYDYGEAMDYWGQGTSVTVSS VL: DIVMTQATPSIPVTPGESVSISCRSSKSLLHVNGNTYLFWFLQRPGQSPQLLIYRMSNLASGVPDRFSGSGSGTAFTLRISRVEAEDVGVYYCMQHLEYPFTFGSGTKLEIK | 91.1%
14 | TM-64 (antibody, V domains shown) VH: QVQLQQPGAELVKPGASVKLSCKASGYTFTSYWMHWVKQRPGHGLEWIGNIDPSDSDTHYNQNFRGKATLTVDKFSTTAYMHLSSLTSEDSAVYYCARSRGGTYDYGEAMDYWGQGTSVTVSS VL: DIVMTQAAPSVPVTPGESVSISCRSSKSLLHTNGNTYLFWFLQRPGRSPQLLIYRMSNLASGVPDRFSGSGSGTAFTLRISRVEAEDVGVYYCMQHLEYPFTFGSGTKLEIK | 89.3%
15 | TM-10 (antibody, V domains shown) VH: QVQLQQSGAELVKPGASVKISCKGSGYAFSSYWMNWVKQRPGKGLEWIGQIYPGDGDTNYNGKFKGKATLTADKSSTTAYIHLSSLTSEDSAVYFCARWGHYDEAMDDWGQGTSVTVSS VL: DVVMTQTPLSLPVSLGDQASISCRSSQSLVHSNGKTYLHWYVQKPGQSPKLLIYKISNRFSGVPDRFSGSGSGTDFTLKISRVEAEDLGVYFCSQITHVPWTFGGGTKLESK | 93.3%
16 | TM-63 (antibody, V domains shown) VH: QVQLQQPGAELVKFGASVKLSCKASGYTFTSFWMHWVKQRPGQGLEWIGNIDPSDSETHYSQKFKDKATLTVDRSSNTAYIQLSSLTSEDSAVYYCARSSNWDNFDYWGQGTTVTVSS VL: DIVMTQASPSVSVTPGESVSISCRSSQSLLHVNGNTYLYWFLQRPGRSPRLLIYRMSNLASGVPDRFSGSGSGTAFTLRISRVEAEDVGVYYCMQHLQYPFSFGSGTKLEMK | 89.3%
17 | TM-61 (antibody, V domains shown) VH: QVQLQQSGAELAKPGASVKLSCKASGYTFTNYWMNWVKQRPGQGLEWIGYINPSSDYTKYNQNFKDKATLTADKSSSTAYMQLNSLTYEDSAVYYCTRWGGSRSYWYFDVWGAGTTVTVSS VL: DIVMTQSPSSLSASAGEKVTMSCKSSQSLLNSGNQKNYLAWYQQKPGQSPKLLIYGASTRESGVPDRFTGSGSGTDFTLTISSVQAEDLAVYYCQNDSNYPFTFGGGTKLEMK | 94.1%
18 | TM-28 (antibody, V domains shown) VH: EVQLQQSGPVLVKPGPSVKISCMASVFTFNDYYIHWVKQSHGKSLEWIGLVYPYNGGTNYNQNFKGKATLTVDTSSRTAYMELNSLTSEDSAVYYCARSYFSNPIGYWGQGTLVTVSE VL: DIVMTQSPSSLSVSVGEKVTVSCKSSQSLLNSGNQKNYLAWYQQKPGQPPKLLIYGASTRESGVPDRFTGSGSGTDFTLTISSVQAEDLAVYYCQNDHSYPLTFGAGTKLELK | 85.4%
19 | TM-45 (antibody, V domains shown) VH: QVQLQQSGAELAKPGASVKLSCKASGYTFTNYWMHWVKKRPGQGLEWIGYINPSSGYTKYNQKFKDKATLTADKSSNTAYMQLSSLTYEDSAVYYCTREGGSISDWYFDVWGTGTTVTVSS VL: DIVMTQAAPSLPVTPGESVSISCRSSKSLLHSNGNTYLYWFLQRPGQSPQLLIYRMSNLASGVPDRFSGSGSGTAFTLRISRVEAEDVGVYYCMQHLEYPYTFGGGTKLEIK | 32.6%
20 | TM-86 (antibody, V domains shown) VH: EVQLQQSGPVLVKPGASVKMSCKASGYTFTDYYIHWVKQSHGRSLEWIGVISPYNDNTNYNQKFKGKATLTVDKSSSTAYMELNSLTSEDSAVYYCVRTYYSNYFDYWGQGTTLTVSS VL: DIVMTQSPSSLSVSAGEKVTMSCKSSQSLLNSGNQKNYLAWHQQRPGQPPKLLIYGASTRESGVPDRFTGSGSGTEFTLTISSVQAEDLAVYYCQNDHSYPLTFGAGTKLELK | 90.5%
21 | TM-37 (antibody, V domains shown) VH: QVQLQQSGAELAKPGASVKLSCKASGYTFTSYWMHWVKQRPGQGLEWIGYVNPSSGYTKNNQKFKDKVTLTADKSSSTAYMQLSSLTYEDSAVYYCAREGGSISDWYFDVWGTGTTVTVSS VL: DIVMTQAAPSVPVTPGESVSISCRSSKSLLHSNGNTYSYWFLQRPGQSPQLLIYRMSNLASGVPDRFSGSGSGTAFTLRISRVEAEDVGVYYCMQHLEYPYTFGGGTKLEIK | 90.2%
22 | TM-59 (antibody, V domains shown) VH: QVQLQQSGAELAKPGASVKLSCKASGYTFISYWMHWVKQRPGQGLEWIGYVNPSSGYTKNNQKFKDKATLTADKSSSTAYMQLSSLTYEDSAVYYCAREGGSISDWYFDVWGTGTTVTVSS VL: DIVMTQAAPSVPVTPGESVSISCRSSKSLLHSNGNTYSYWFLQRPGQSPQLLIYRMSNLASGVPDRFSGSGSGTAFTLRISRVEAEDVGVYYCMQHLEYPYTFGGGTKLEIK | 92.3%
